In US20070128190A1 (GLENMARK PHARMACEUTICALS S A, published 2007):

T1: GST-human α2 I domain fusion protein (human, UniProt P17301 153-368)
T1 construct: the reverse primer ends at ...SIEGTV; also called GST-α2 I domain; hα2I; not shown: glutathione S-transferase tag encoded by vector pGEX-2TK
T1 sequence: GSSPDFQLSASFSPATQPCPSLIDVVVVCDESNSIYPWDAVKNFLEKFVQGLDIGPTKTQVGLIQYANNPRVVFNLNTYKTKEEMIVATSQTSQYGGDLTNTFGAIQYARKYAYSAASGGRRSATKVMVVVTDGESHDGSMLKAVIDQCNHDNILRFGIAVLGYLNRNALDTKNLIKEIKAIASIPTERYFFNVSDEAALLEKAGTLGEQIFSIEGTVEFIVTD


Assays:
[1] = molecular target: T2, human platelet α2β1 integrin (immobilized on microtiter plates) (human, UniProt P17301 30-1181; P05556 21-798); experiment: competition with Eu-TMC-2206 on human platelet α2β1-coated plate
T2 construct: plates custom-coated with human platelet α2β1 by GTI Inc; also called immobilized α2β1 integrin; α2β1-coated plates
Procedure: Exemplary IgG1 antibodies have a hVH 14.0 γ heavy chain (SEQ ID NO:181) or a hVH12.0 γ1 heavy chain (SEQ ID NO:182) and a hVL10.0Q light chain (SEQ ID NO:178). Exemplary IgG4 antibodies have a hVH14.0 γ4 heavy chain (SEQ ID NO:174) or a hVH12.0 γ4 heavy chain (SEQ ID NO:176) and a hVL 10.0Q light chain (SEQ ID NO:178). Purified antibodies were tested in the competition assay to compare potency by Kᵢ values as well as in the cell adhesion to collagen assay, where potency is measured as EC₅₀ values.

[2] = molecular target: T1, GST-human α2 I domain fusion protein; experiment: SPR (Biacore 2000), antibody captured, GST-α2 I domain in solution
[3] = molecular target: T2, human platelet α2β1 integrin …; experiment: equilibrium binding of Eu-labelled antibody to human platelet α2β1-coated plate, Scatchard
Procedure: Wells in a 96-well microtiter plate were coated with platelet α2β1-integrin (custom-coated with human platelet α2β1 by GTI Inc., WI) and then blocked with nonfat milk. […] After concentration in prewashed MicroSep concentrators [30-kDa cutoff; Pall Life Sciences at 9500 rpm (7000×g) in a JA-20 rotor (Beckman Instruments, Inc.] for 20 minutes at 4° C.), the antibody was adjusted to 4.0 mg/mL with PBS, 100 mM NaHCO₃, pH 9.3. The MAb/bicarbonate mixture (0.250 mL) was gently mixed into a vial containing 0.2 mg N¹-(p-isothiocyanatobenzyl)-diethylenetriamine-N¹,N²,N³,N³-tetraacetic acid chelated with Eu³⁺ (Eu-N1-ITC; Perkin Elmer Life Sciences) and incubated overnight at 4° C. without stirring. The labeled antibody mixture was applied to a PD-10 column (GE Biosciences, Piscataway, N.J.) pre-equilibrated with Running Buffer (50 mM Tris, pH 7.4 and 138 mM NaCl). Fractions (0.5 mL) were collected and assayed for total protein (Bradford reagent; Bio-Rad Laboratories, Hercules, Calif.) using a SpectraMax 384 absorbance plate reader and for europium after 1:10.000 dilution in DELFIA Enhancement Solution (Perkin-Elmer) by time-resolved fluorescence (TRF) using a Victor2 multi-label plate reader (Perkin Elmer). […]

[4] = molecular target: T2, human platelet α2β1 integrin …; experiment: competition with Eu-humanized TMC-2206 on α2β1-coated plates
Excerpt: The inhibition curves were fitted with the “one site competition” model using Prism software (GraphPad, Inc.) to obtain IC₅₀ values and to calculate the Kᵢ using the equation of Cheng and Prusoff (1973) and the respective values for KD from above.
The cloning of the human, rhesus macaque, rat, and mouse α2 I domains were described in Example 12. Cynomolgus and additional rhesus monkey α2 I domains were cloned from cDNA derived from total RNA extracted from skin tissue (MediCorp, Inc., Montreal, QC).

[5] = molecular target: human α2β1 integrin on human cells (platelets, leukocytes, HT1080) (human, UniProt P17301 30-1181; P05556 21-798); experiment: cell-based or functional assay
[6] = molecular target: T2, human platelet α2β1 integrin …; experiment: competition with Eu-humanized TMC-2206 on human platelet α2β1-coated plate
Procedure: The MAb/bicarbonate mixture (0.250 mL) was gently mixed into a vial containing 0.2 mg N¹-(p-isothiocyanatobenzyl)-diethylenetriamine-N¹,N²,N³,N³-tetraacetic acid chelated with Eu³⁺ (Eu-N1-ITC; Perkin Elmer Life Sciences) and incubated overnight at 4° C. without stirring. The labeled antibody mixture was applied to a PD-10 column (GE Biosciences, Piscataway, N.J.) pre-equilibrated with Running Buffer (50 mM Tris, pH 7.4 and 138 mM NaCl). Fractions (0.5 mL) were collected and assayed for total protein (Bradford reagent; Bio-Rad Laboratories, Hercules, Calif.) using a SpectraMax 384 absorbance plate reader and for europium after 1:10.000 dilution in DELFIA Enhancement Solution (Perkin-Elmer) by time-resolved fluorescence (TRF) using a Victor2 multi-label plate reader (Perkin Elmer). The fractions that were positive for both protein and europium label were pooled, applied to a new PD-10 column, and samples collected and assayed for total protein and for europium content by TRF calibrated against a europium standard solution (Perkin-Elmer) to calculate the fluor : protein ratio. […] The plate was shaken (Titer Plate Shaker, speed setting of 5, 5 minutes at room temperature) and TRF intensities were read using the Victor2 multi-label plate reader. The KD values were calculated by Scatchard analyses.

Binder	Ki [1] [nM]	Kd [2] [nM]	koff [2] [s⁻¹]	kon [2] [M⁻¹ s⁻¹]	Kd [3] [nM]	Ki [4] [nM]	EC50 (nm), human platelets on human placenta Type I collagen (n = 1) [5] [nM]	Ki [6] [nM]
TMC-2206 (antibody, mouse IgG1, V domains shown, murine IgG1/κ secreted by hybridoma BHA2.1; labelled with Eu-N1-ITC where used as tracer; also called BHA2.1) VH: QVQLKESGPGLVAPSQSLSITCTVSGFSLTNYGIHWVRQPPGKGLEWLGVIWARGFTNYNSALMSRLIITKDNSQSQVFLKMNSLQPDDSATYFCARANDGVYYAMDYWGQGTSVTVSS VL: QFVLTQSPAFLSASPGEKVTMTCSANSSVNYIHWYQQKSGTSPKKWIYDTSKLASGVPVRFSGSGSGTSYSLTISSMETEDAATYYCQQWTTNPLTFGAGTRVELK	0.22	2.9	0.0011	380000	0.72	0.14	8.44	0.21
Humanized TMC-2206 (hIgG4/κ VH12.0/VL10.0Q) (antibody, labelled with Eu or Alexa-488 in some assays) heavy: not shown light: DFVMTQSPAFLSVTPGEKVTITCSAQSSVNYIHWYQQKPDQAPKKLIYDTSKLASGVPSRFSGSGSGTDYTFTISSLEAEDAATYYCQQWTTNPLTFGQGTKVEIKRTVAAPSVFIFPPSDEQLKSGTASVVCLLNNFYPREAKVQWKVDNALQSGNSQESVTEQDSKDSTYSLSSTLTLSKADYEKHKVYACEVTHQGLSSPVTKSFNRGEC	0.27	2.3	0.00082	350000	1.29	0.34	13.1	0.41
